Experimental data reported in the supplement of paper PMC11136658.

System: peptide library, one residue held at a place counted from the Y acceptor
Experiment: relative phosphorylation of the sub-library (ratio to the mean residue at this position); higher = residue favoured
How it was run: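 Every value reflects phosphorylation relative to the mean randomized residue. The sum of the 18 randomized residues, or 16 in the Ser/Thr-free library, served to normalize intensities at each position, which were then multiplied by that number. Intensities came from phosphorimaging with ImageQuant of biotinylated Tyr-centred peptides captured on streptavidin membranes after 90 min with purified recombinant kinases and 50 μM ATP plus γ-32P-ATP.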

Chain of EPHA5, construct: aa662-948, human (P54756 662-948, looked up): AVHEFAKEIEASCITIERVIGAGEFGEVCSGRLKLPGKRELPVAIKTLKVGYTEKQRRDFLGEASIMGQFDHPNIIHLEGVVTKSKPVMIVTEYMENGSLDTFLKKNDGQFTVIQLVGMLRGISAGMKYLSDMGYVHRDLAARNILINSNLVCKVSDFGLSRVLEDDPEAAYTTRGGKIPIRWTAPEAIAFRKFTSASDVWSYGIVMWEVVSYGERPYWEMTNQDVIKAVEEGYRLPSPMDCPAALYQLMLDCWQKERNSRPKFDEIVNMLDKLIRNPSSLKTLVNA
Chain of EPHA6, construct: aa683-end, human (Q9UF33 683-1036, looked up): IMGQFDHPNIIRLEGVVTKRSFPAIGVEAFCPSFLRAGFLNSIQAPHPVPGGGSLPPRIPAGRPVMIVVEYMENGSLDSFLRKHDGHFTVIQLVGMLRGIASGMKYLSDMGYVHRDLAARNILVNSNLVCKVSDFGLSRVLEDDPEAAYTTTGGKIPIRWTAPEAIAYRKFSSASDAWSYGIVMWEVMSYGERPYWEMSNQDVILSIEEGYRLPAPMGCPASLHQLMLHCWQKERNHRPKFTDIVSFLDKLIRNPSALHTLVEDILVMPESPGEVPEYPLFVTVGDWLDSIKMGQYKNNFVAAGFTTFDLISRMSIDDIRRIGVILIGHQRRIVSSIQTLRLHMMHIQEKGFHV
Chain of FGFR1, construct: aa456-765, human (P11362 456-765, looked up): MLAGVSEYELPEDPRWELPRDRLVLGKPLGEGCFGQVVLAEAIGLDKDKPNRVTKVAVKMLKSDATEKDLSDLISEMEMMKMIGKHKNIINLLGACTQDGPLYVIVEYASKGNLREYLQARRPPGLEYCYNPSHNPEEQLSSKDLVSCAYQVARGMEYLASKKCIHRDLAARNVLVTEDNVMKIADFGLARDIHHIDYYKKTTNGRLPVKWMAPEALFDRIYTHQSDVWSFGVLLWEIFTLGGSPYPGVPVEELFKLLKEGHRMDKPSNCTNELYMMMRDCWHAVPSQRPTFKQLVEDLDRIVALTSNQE

EPHA5, construct: aa662-948, human (from UniProt P54756)
relative phosphorylation
Conditions | at +1 | at +2 | at +3 | at +4 | at +5 | at -1 | at -2 | at -3 | at -4 | at -5
A fixed | 1.5 | 0.555 | 0.644 | 0.75 | 1 | 0.44 | 1.06 | 0.741 | 1.03 | 0.879
D fixed | 1.25 | 1.88 | 0.493 | 1.3 | 1.25 | 2.92 | 1.34 | 1.4 | 1.22 | 1.11
E fixed | 3.4 | 2.46 | 0.463 | 1.35 | 1.27 | 1.59 | 1.56 | 1.74 | 1.5 | 1.07
F fixed | 0.713 | 1.41 | 1.41 | 1.07 | 1.01 | 1.03 | 0.671 | 1.35 | 1.11 | 1.06
G fixed | 0.825 | 0.275 | 0.426 | 1.21 | 1.2 | 0.215 | 1.14 | 0.85 | 1.18 | 1.14
H fixed | 0.529 | 0.834 | 0.862 | 1.2 | 0.903 | 0.651 | 0.89 | 1.03 | 1.02 | 1.08
I fixed | 1.05 | 0.877 | 2.62 | 0.716 | 0.778 | 1.83 | 0.725 | 0.845 | 0.83 | 0.973
K fixed | 0.174 | 0.329 | 0.218 | 0.638 | 0.64 | 0.203 | 0.779 | 0.604 | 0.778 | 0.921
L fixed | 0.847 | 0.869 | 1.85 | 0.707 | 0.916 | 1.74 | 0.789 | 0.877 | 1 | 0.983
M fixed | 1.53 | 0.976 | 1.37 | 0.965 | 0.97 | 0.815 | 0.604 | 0.935 | 0.891 | 1.02
N fixed | 0.48 | 1.18 | 0.477 | 0.805 | 0.906 | 2.59 | 1.28 | 1.12 | 0.966 | 1.11
P fixed | 0.144 | 0.481 | 1.39 | 1.19 | 1.53 | 0.333 | 1.21 | 0.953 | 1.16 | 0.983
Q fixed | 1.31 | 0.857 | 0.867 | 1.01 | 0.961 | 0.465 | 1.23 | 0.966 | 1.2 | 1.18
R fixed | 0.224 | 0.47 | 0.35 | 0.832 | 0.763 | 0.232 | 0.883 | 0.751 | 0.885 | 0.968
S fixed | 0.756 | 0.622 | 0.514 | 0.925 | 1.04 | 0.437 | 1.39 | 0.868 | 0.749 | 0.822
T fixed | 0.62 | 0.772 | 0.563 | 0.937 | 0.859 | 0.924 | 0.885 | 0.893 | 0.64 | 0.824
V fixed | 1.5 | 0.912 | 1.95 | 0.729 | 0.802 | 0.932 | 0.829 | 0.806 | 0.776 | 0.757
W fixed | 1.15 | 2.25 | 1.52 | 1.68 | 1.2 | 0.662 | 0.729 | 1.29 | 1.05 | 1.12
pThr fixed | 1.77 | 2.65 | 0.559 | 1.37 | 1.06 | 1.87 | 1.13 | 0.996 | 0.952 | 0.917
pTyr fixed | 2.61 | 6.1 | 1.08 | 1.72 | 1.61 | 2.82 | 1.52 | 1.25 | 1.29 | 1.15

EPHA6, construct: aa683-end, human (from UniProt Q9UF33)
relative phosphorylation
Conditions | at +1 | at +2 | at +3 | at +4 | at +5 | at -1 | at -2 | at -3 | at -4 | at -5
A fixed | 1.7 | 0.891 | 0.971 | 1.03 | 0.87 | 0.838 | 1.39 | 0.94 | 1.57 | 1.47
D fixed | 0.944 | 1.3 | 0.585 | 0.688 | 0.91 | 2.67 | 1.15 | 1.18 | 0.754 | 0.894
E fixed | 2.3 | 1.3 | 0.541 | 0.818 | 0.966 | 1.73 | 1.22 | 1.36 | 1.03 | 0.788
F fixed | 0.862 | 1.19 | 0.94 | 1.06 | 1.12 | 0.701 | 0.668 | 1.09 | 0.859 | 0.811
G fixed | 0.699 | 0.438 | 0.61 | 1.12 | 0.966 | 0.427 | 0.758 | 0.853 | 1.27 | 1.22
H fixed | 0.72 | 1.13 | 1.03 | 1.15 | 1.24 | 0.733 | 0.886 | 1.01 | 0.973 | 1.21
I fixed | 1.02 | 0.984 | 1.93 | 1 | 0.811 | 1.92 | 0.966 | 1.5 | 1.3 | 0.707
K fixed | 0.62 | 1.03 | 0.901 | 1.06 | 1.04 | 0.593 | 1.17 | 0.842 | 0.944 | 1.15
L fixed | 0.792 | 0.964 | 1.56 | 0.86 | 0.92 | 1.29 | 1.07 | 0.873 | 0.847 | 0.703
M fixed | 1.08 | 0.917 | 1.26 | 0.988 | 0.955 | 0.737 | 0.85 | 0.943 | 0.881 | 0.802
N fixed | 0.649 | 1.04 | 0.522 | 0.74 | 0.947 | 1.61 | 0.922 | 0.818 | 0.754 | 0.982
P fixed | 0.352 | 0.594 | 1.05 | 1.29 | 1.03 | 0.504 | 1.2 | 0.876 | 1.15 | 1.03
Q fixed | 1.31 | 0.779 | 0.716 | 0.882 | 0.942 | 0.535 | 1.02 | 0.735 | 0.942 | 0.998
R fixed | 0.916 | 1.3 | 1.06 | 1.27 | 1.09 | 0.63 | 1.3 | 1.01 | 1.05 | 1.45
S fixed | 0.808 | 0.748 | 0.684 | 0.848 | 0.993 | 0.535 | 1.21 | 0.951 | 0.826 | 0.949
T fixed | 0.678 | 0.703 | 0.673 | 0.794 | 0.979 | 0.798 | 0.84 | 0.893 | 0.755 | 0.91
V fixed | 1.54 | 1.06 | 1.64 | 1.08 | 0.85 | 1.2 | 0.781 | 1.11 | 1.2 | 0.954
W fixed | 1 | 1.64 | 1.32 | 1.32 | 1.36 | 0.528 | 0.605 | 1.01 | 0.894 | 0.981
pThr fixed | 1.37 | 1.63 | 0.624 | 0.561 | 0.816 | 2.9 | 1.03 | 0.842 | 0.799 | 0.686
pTyr fixed | 1.48 | 3.8 | 0.659 | 0.576 | 1.01 | 2.12 | 0.946 | 0.911 | 0.73 | 0.677

FGFR1, construct: aa456-765, human (from UniProt P11362)
relative phosphorylation
Conditions | at +1 | at +2 | at +3 | at +4 | at +5 | at -1 | at -2 | at -3 | at -4 | at -5
A fixed | 1.01 | 0.593 | 0.546 | 0.853 | 0.912 | 0.836 | 0.925 | 0.939 | 1.11 | 1.05
D fixed | 0.332 | 0.728 | 0.463 | 0.791 | 1.17 | 2.09 | 1.05 | 1.22 | 1.02 | 1.05
E fixed | 0.68 | 1.06 | 0.407 | 0.769 | 1.06 | 1.29 | 1.17 | 1.23 | 1.09 | 0.859
F fixed | 1.81 | 1.68 | 1.57 | 1.12 | 0.897 | 1.06 | 0.673 | 0.814 | 0.905 | 0.897
G fixed | 0.332 | 0.406 | 0.514 | 1.27 | 1.22 | 0.557 | 1.19 | 1.08 | 1.22 | 1.12
H fixed | 1.62 | 0.924 | 0.968 | 1.06 | 0.867 | 1.17 | 1.17 | 1.03 | 1.05 | 1.05
I fixed | 1.66 | 1.14 | 2.43 | 1.13 | 0.744 | 1.3 | 0.907 | 0.816 | 0.823 | 0.921
K fixed | 0.379 | 0.581 | 0.302 | 0.866 | 0.903 | 0.461 | 1.03 | 1.01 | 1.02 | 1.12
L fixed | 0.938 | 1.35 | 1.79 | 1.13 | 0.737 | 0.921 | 0.829 | 0.69 | 0.769 | 0.891
M fixed | 1.07 | 1.07 | 1.65 | 0.981 | 0.822 | 0.758 | 0.826 | 0.917 | 0.803 | 0.95
N fixed | 0.428 | 0.954 | 0.415 | 0.758 | 0.999 | 1.35 | 1.25 | 1.34 | 1.02 | 1.24
P fixed | 1.13 | 0.702 | 0.621 | 1.3 | 1.72 | 0.954 | 0.919 | 0.962 | 1.22 | 0.954
Q fixed | 0.794 | 0.963 | 0.796 | 0.955 | 0.999 | 1.09 | 1.24 | 1.05 | 1.2 | 1.19
R fixed | 0.494 | 0.669 | 0.494 | 0.914 | 1.05 | 0.354 | 0.969 | 0.95 | 1.04 | 1.29
S fixed | 0.888 | 0.818 | 0.6 | 1.01 | 1.14 | 0.678 | 1.2 | 1.19 | 0.918 | 0.988
T fixed | 0.98 | 0.762 | 0.774 | 0.836 | 1.02 | 0.77 | 0.995 | 0.916 | 0.768 | 0.741
V fixed | 1.67 | 1.09 | 1.78 | 1 | 0.84 | 1.21 | 0.9 | 0.84 | 0.789 | 0.753
W fixed | 1.78 | 2.51 | 1.87 | 1.26 | 0.908 | 1.15 | 0.748 | 1.01 | 1.23 | 0.949
pThr fixed | 0.496 | 0.942 | 0.298 | 0.559 | 1.03 | 0.884 | 0.846 | 0.938 | 0.771 | 0.696
pTyr fixed | 2.43 | 2.39 | 0.408 | 0.758 | 0.987 | 2.02 | 1.13 | 1.06 | 1.07 | 0.764
